± gives the uncertainty stated by the source.

A short description of the data set: amyloid nucleation score (Sup35N fusion, yeast selection) (log enrichment); library NNK1; higher = more nucleation; inactive = no reads after selection. Summed up:
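Nucleation score: DiMSum log enrichment of output over input reads, centred on the mode score of non-aggregating sequences. Only sequences with at least 100 input reads were kept. Reads came from Illumina sequencing of plasmid inserts before and after 7 days of growth at 30°C without adenine and uracil, in psi-negative yeast expressing Sup35N fused to peptides of 20 random codons after 24 hours of induction with 100 μM copper sulfate.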
As for YKRCAPDRHYG, the amyloid nucleation score was 1.06 ± 0.58. Turning to YKSISSDSAKWFVMGLNGLV, the amyloid nucleation score was -1.6 ± 1.1. Substance YKSLMFWLVLVSVFMIRRNI displayed an amyloid nucleation score of 2.62 ± 0.26. For the substance YKTYMFYCTSFQSGPCSRLI, the amyloid nucleation score was -0.634 ± 0.35. As for YLCKVRACTRKSQSLLCGAS, the amyloid nucleation score worked out at 0.678 ± 0.65. The substance YLDDIH came in with an amyloid nucleation score of -0.105 ± 0.44.

On to YLDVLGAFC, for which the amyloid nucleation score is -0.214 ± 0.47.

YLDWTVSALNWAMRMGSTVR had an amyloid nucleation score of 0.381 ± 0.31. Consider YLFFNLYCNYVLTAMLRACS, for which the amyloid nucleation score entry was “inactive”. In the case of YLGQWFNYTCYQWVMV it was 1.37 ± 0.21; in that of YLGRVSFIGHFVVTVSGSSQ, 1.1 ± 0.21. The substance YLIEFCPL registered an amyloid nucleation score of -0.225 ± 0.34. Take YLIRHIENGCSTQCRSTSWV: the amyloid nucleation score entry was “inactive”. In the case of YLLCFCR it was 0.354 ± 0.27; in that of YLLESSTIGIV, 0.474 ± 0.69; in that of YLPYVNLAG, -1.07 ± 2.4. YLSLTTEVWSNGHVWCGIGR gave an amyloid nucleation score of -0.043 ± 1.4. The result for YLSRGNY reads -0.245 ± 0.79; that for YLTWQKTWRVRVSVLCTGTD, 0.638 ± 0.58; that for YLTYAPQVWLSAGFNSNEGS, 5.71 ± 0.078.

Consider YLVSYMWVSLDDLSLYRANG, for which the amyloid nucleation score turned out to be 0.585 ± 0.52. As to YLVWCIESITLGFMGELGAR, the amyloid nucleation score is 0.199 ± 0.57. The result for YMAFYPCWVHHKMIEKLCRC reads -0.076 ± 0.71. The result for YMASYGNLVGMFDAIQVLIV reads 1.08 ± 0.31; that for YMCGLSECAS, 5 ± 0.062.

The substance YMFVMEKARTSIYLSMRNYC came in with an amyloid nucleation score of -0.419 ± 0.39. The result for YMGGEWKD reads 6.801 ± 0.06; that for YMNWFITGHDVGRYLIQFFV, -1.74 ± 2.4; that for YMPPNGKCSKVCLLRGGDYM, 0.719 ± 0.37.

In the case of YNCYREGAWSITIRWIANRV, the amyloid nucleation score was determined as 0.124 ± 0.34. Turning to YNGLGIEETNWAARGS, the amyloid nucleation score was -1.12 ± 1.1.

With YNIALCINSQVRESRRPVGV, the amyloid nucleation score worked out at 5.24 ± 0.072. With YNLDDILPLHIEGRFNRDIA, the amyloid nucleation score result was “inactive”. On to YNLDSLLIWWVIDC, for which the amyloid nucleation score is -0.22 ± 1.1. As for YNLYS, the amyloid nucleation score is -0.626 ± 1.1.

Substance YNPGG yielded an amyloid nucleation score of -0.248 ± 0.26. For YNRDRECWRIS, the amyloid nucleation score was 1.17 ± 0.53. In the case of YNSETSPVCYELTCESFCIV it was -1.23 ± 2.4; in that of YNTDWPLHLTADVGVFY, -0.088 ± 1.1; in that of YNWYPEWLCYIFRTKQVVGT, 0.382 ± 0.45.

For YNYVG, the amyloid nucleation score is -1.29 ± 2.7. On to YPIYIVWVFIVITICVANDS, for which the amyloid nucleation score is -0.072 ± 0.31. Regarding YPNYFSVRFSNWLASTKFQI, the amyloid nucleation score result was “inactive”. Take YPSVADRHAILHR: the amyloid nucleation score was 0.219 ± 0.74. For the substance YPTPLQVFVRSRFDRRI, the amyloid nucleation score was -0.132 ± 0.26.

As to YPYNWSPYEAASIVAVQNYQ, the amyloid nucleation score was -1.44 ± 1.5. The substance YQFGLEKSMLGRGY had an amyloid nucleation score of 0.36 ± 0.41. As to YQLWPQASMKMCD, the amyloid nucleation score came out at 0.258 ± 0.4. In turn, YRAKSSEGL displayed an amyloid nucleation score of -0.631 ± 0.71.

YRHSDANKHLGGAIQF displayed an amyloid nucleation score of -0.519 ± 0.53. In turn, YRLKRINCGHVGHYMEDIRR had an amyloid nucleation score of -0.099 ± 0.29. In turn, YRVFASNCEFYSRCKYLYLL yielded an amyloid nucleation score of 0.029 ± 1.6. For YRVLELFYFV, the amyloid nucleation score entry is “inactive”. The substance YRWSVCCLLVMFWLYDGALL came in with an amyloid nucleation score of -0.156 ± 0.8. YRWVFKCRCRSPGGESKSSR yielded an amyloid nucleation score of 5.9 ± 0.097. The result for YSCWFKHRTALPIGSEGMTR reads 0.708 ± 0.53. As for YSHYNGTVAYRWEPQ, the amyloid nucleation score was 0.901 ± 0.47. In the case of YSIFILRSAWMMRRIEMSTA it was -0.252 ± 0.45; in that of YSLEFSSFMLFLTCLVSYNY, -0.457 ± 0.4; in that of YSLFAGIG, 0.735 ± 0.85. In turn, YSLWFLRYSRNGSMRDLLRF gave an amyloid nucleation score of -0.447 ± 0.39.

As to YSMIPKITSKP, the amyloid nucleation score was determined as 0.028 ± 0.29. In the case of YSNRWNYWVYVFGQVF, the amyloid nucleation score was -0.437 ± 0.42. In the case of YSNWGHVSRWFLRFIVVFFI it was 0.459 ± 0.64; in that of YSPDLSRASFCFLWYISSS, “inactive”. YSRWER: the amyloid nucleation score is -0.565 ± 0.39. In the case of YSSERTLLALVGT it was -0.21 ± 0.51; in that of YSVDKIAYFGINKCRTVLWE, 1.09 ± 0.52; in that of YSYVVCYNFYKRV, 3.86 ± 0.14.

In the case of YTAMFCNSVLHADGLPQLMG, the amyloid nucleation score is -0.033 ± 0.97. YTASMTIFLDLLP displayed an amyloid nucleation score of 2.07 ± 0.15. In the case of YTCCWTVG it was 4.18 ± 0.08. Regarding YTGIPRSS, the amyloid nucleation score came out at 0.203 ± 0.28. In the case of YTIEYTSITVIVCGILYNT it was 6.932 ± 0.05. YTLFWNVEGNLWQTPSVCNL displayed an amyloid nucleation score of 0.141 ± 0.95. YTMMCGISQRQLTKRRPTLW: the amyloid nucleation score is -0.205 ± 0.52. For the substance YTSSFVKDGKHWSRSKTGVY, the amyloid nucleation score is -0.569 ± 0.73.

Take YTSTIKYLVYNN: the amyloid nucleation score was -1.08 ± 0.94.

With YTWMSIEIY, the amyloid nucleation score was 1.71 ± 0.4. YVASLYQYFYLLIKIDCVFF: the amyloid nucleation score is -0.824 ± 0.97. YVFNFLIMLLLGVA registered an amyloid nucleation score of -0.665 ± 0.32.

For the substance YVHLYDDCTIGSTRAEGRGY, the amyloid nucleation score is 0.777 ± 1.2. As for YVIDGPSLSTCLVRV, the amyloid nucleation score is 0.839 ± 0.5. YVLSLYTNGRSPSA yielded an amyloid nucleation score of 0.203 ± 0.56. Substance YVLTCFAELGGRRGVS registered an amyloid nucleation score of -0.531 ± 1.4. The result for YVRDGVPSWMQCYLRGSFGG reads 0.208 ± 0.72; that for YVVNYYNRQSIGCFVWTWRR, 8.169 ± 0.05; that for YVWVGADDFFYRGYVFSRLV, -0.212 ± 1.4.

YVYNMFRL: the amyloid nucleation score is 2.88 ± 0.14. As for YVYWR, the amyloid nucleation score was -1.82 ± 2.7.

Take YWCNYVIVMSCKWG: the amyloid nucleation score result was “inactive”. For YWFCNRIGIVGIVLSGYLCL, the amyloid nucleation score is -0.154 ± 0.26. In the case of YWGYKTGQDCFSHSIRRRIL it was -0.105 ± 0.85; in that of YWIDR, -0.281 ± 0.42; in that of YWRCCQVCRLRMDPQYFPDG, -0.358 ± 0.69. As for YWVILFPITIWSVKTSVGNH, the amyloid nucleation score was found to be 1.7 ± 0.31.

In turn, YYDSGVSPAVQSPECSTSGA showed an amyloid nucleation score of 0.186 ± 0.93. The result for YYFKRNTCCAAVLKHPFPVS reads 0.019 ± 0.99; that for YYFSVYQFCGGVFGSRDCLE, 6.711 ± 0.05; that for YYGNTRWLDYMPLL, “inactive”. YYIRNYVRFRRS returned an amyloid nucleation score of -0.797 ± 0.48.

Regarding YYIVVCR, the amyloid nucleation score worked out at 0.932 ± 0.97. The result for YYLQDDTWGLKFNPIVSTCF reads 1.13 ± 0.54; that for YYLSVNR, -0.116 ± 0.67; that for YYMTIFERFSLHFTMGLNLG, 0.752 ± 0.56. Consider YYRGCTWLAYPEERTALPRM, for which the amyloid nucleation score worked out at 0.208 ± 0.27. In turn, YYSVGYGTYLTEFLCGNLRG came in with an amyloid nucleation score of 0.989 ± 0.35. As to YYWIYVIPSIFSIF, the amyloid nucleation score was determined as 5.5 ± 0.088. Take YYWVFCFFA: the amyloid nucleation score is 7.47 ± 0.079. In turn, YYYVWNFGGWIGFRNVVSIR registered an amyloid nucleation score of 0.05 ± 0.98.

The values above are taken from the supplement of paper PMC12042874.
